Assay results as given in article PMC9712074 (Cell Reports, 2022).

B1: BD55-5001 (antibody, V domains shown)
VH: QVQLVQSGSELKKPGASVKVSCKTSGYTFSTYAINWVRQAPGQGLEWMGWINTDTGIPTYAQGFTGRFVLSLDTSVGTAYLQISSLKAEDTAVYYCARADSGSYSWWFDPWGQGTLVTVSS
VL: VIWMTQSPSSLSASIGDRVTISCRLSYGISSELVWYKQKPGKAPELLIYAASILQSGVPSRFSGTGSGTDFTLTISGLQSEDFATYYCQQYYSFPLTFGQGTKVEIK
B2: BD55-5201 (antibody, V domains shown)
VH: QVQVVQSGAEVKKPGSSVKVSCEASGGTFSSDTIHWVRQAPGQGLEWMGRIIPIPGIVNYAQKFQGRVTITADKSTSIAYMELSSLRSEDTAVYYCASAPPRGYSGYDLLGNDPLDIWGQGTMVTVSS
VL: QSVLTQPPSVSGAPGQRVTISCTGSSSNIGAGYDVHWYQQLPGTAPKFFISVNNNRPSGVPDRFSGSKSGTSASLAITGLQAEDEAVYYCQSFDSSLSGSYVFGTGTKVTVL
B3: BD55-5168 (antibody, V domains shown)
VH: QVQLVQSGSEVKKPGSSVKVSCKASGGSFRSHAISWVRQAPGQGLEWMGCVIPTFDTANYAQNFRGRVTLTADESTSTAYMELTSLTSDDTAVYYCARLFPNGTPDSPTGPLDYWGQGTLVTVSS
VL: DIQMTQSPSSLSASVGDRVTITCQASQGIGNYLNWYQQKPGKAPKLLIYGASNLHTGVPSRFSGRGSGTHFTFTINSLQPEDVATYYCQQYDYVPMYTFGQGTKLEIK
B4: BD55-5182 (antibody, V domains shown)
VH: EVQLVESGGGLVKPGGSLRLSCAASGFTLSNAWMTWVRQAPGKGLEWIARIKGKVDGATRDYAAPVKGRFTISTDDSKTTLFLQMNTLKTEDTAVYFCTALFTSYDMLTGRAGGRGYWGQGTLVTVSS
VL: NVMLTQPHSVSESPGKTVTISCTRSSGSIASNYVQWYQQRPGSAPTTVIYEDNQRPSGVPDRFSGSIDSSSNSASLTISGLETEDEADYYCQSFDSSNHMNWVFGGGTKLTVL
B5: BD55-5167 (antibody, V domains shown)
VH: QITLKESGPTLVKPTQTLTLTCTFSGFSLTTTGMGVGWIRQPPGKAPEWLALIYWLDDTRYSPSLESRLTLTKDTSKNLVVLTMTNMDPVDTATYYCAHLYYDSSSGYDTTGPDAFDFWGQGTMVTVSP
VL: AIQITQSPSSLSASPGDRVTITCRASQGISSFLAWYQQRRGRAPKLLIHSASTLQNGVPSRISGSGSGTDFTLTITGLQSEDFATYYCQQYYSYPPTFGHGTKVEF
B6: BD55-5171 (antibody, V domains shown)
VH: QVQLVQSGSGLKKPGASVKVSCRTSGYSFTDHTINWVRQAPGQGLEWMGWINTATGIPTYAQGFTGRFVFSLDTSVGTAFLLISSLQAADTAVYYCARAASWDYCGNNNCFGDYWGQGTLVTVSS
VL: ENVLTQSPGTLSLSVGERVTLSCRASHSVGSSFLAWYQQKPGQAPRLLIYGASNRATGIPDRISGRGSGTDFSLTISRLEPEDFAVYYCHQYGSSPFTFGQGTKVEIK
B7: BD55-5175 (antibody, V domains shown)
VH: QVQLVQSGPELKRPGASVKVSCETSGYTFTDYAINWVRQAPGQGLEWMGWINTNTGHPTYAQGFTGRFVFSVDMSDSTAYLQISSLKPADTAVYYCARDFQVPEGLDYWGQGTLVTVSS
VL: DIVMTQSPATLSLSPGETATLSCRASYSFTSRLAWYQQKPGQAPRLLIHDASNRAPGVPARFSGSGSGTEFTLAISGLQSEDSAVYYCQQYHSWPLTFGQGTKVEIK
B8: BD55-5164 (antibody, V domains shown)
VH: QLQLQESGPGLVKPSETLSLTCIVSRGSISSSSYFWAWVRQAPGKGLEWIGTIDYTGNTHYNTSLKSRVTISVDTSKNQFSLRLRSVTAADTALYFCSRQSAPPWGSSWGDYWGRGTLVTVSS
VL: DIQMTQSPSSLSASVGDRVTISCQASQDISNYLNWYHQTPGKAPILLIFDASNLEAGVPSRFSGSGSGRHFSFTISSLQPEDTGTYYCQQYANLPALTFGGGTKVDIK
B9: BD55-5195 (antibody, V domains shown)
VH: QLQLQESGPRLVKPSETLSLTCSVSGGSIRSNSDYWAWIRQSPGQGLEWIGSISHSGSTYYNPSLKSRVSIFVDTSSNQFSLNLTSVTAADTAVYHCARHPSSGWLILWFDPWGQGTLVTVSS
VL: EIVLTQSPGTLSLSPGERATLSCRASQSISSNFLAWYQQKPGQAPRLLIYGASNRATDIPDRFSGSGSGTDFTLTVRRLEPEDFAVYYCHQYDTSPQTFGQGTKVEIK
B10: BD55-5183 (antibody, V domains shown)
VH: QVQLVQSGGEVKKPGSSVKVSCRASGGTFSGYTISWVRRAPGQGLEWMGGIIPMYGAANYAQKFQGRVTISAETSTGTAYMELSGLTSDDTAMYYCARDLGGEDITVAGKAPDYWGQGTLVTVSS
VL: DIQMTQSPSSLSASVGDRVTVTCRASQSISKYLNWYQERPGKAPKLLIYTASSLPSEVPSRFSGSGFGTDFTLTISGLQPEDFATYYCQQSYSLPYTFGQGTKLEIK
B11: BD55-5200 (antibody, V domains shown)
VH: QVQLQESDPGLVKPSQTLSLTCTVSGGSISGGSNFWNWIRQPAGKGLEWIGRIYTSGNTDYNPSLKSRVTISVDTSKNQFSLRLSSVTAADTAVYYCARDRLSGKVEVAINHFSYGLDVWGPGTTVTVSS
VL: SHELTQPPSVSVSPGQTARITCSGDALPKQYAYWYQQKSGQAPVLVIYKDSERPSGIPERFSGSSSGRTVTLTISGVQAEDEADYYCQSADSSNIYLAFGGGTKVTVL
B12: BD55-5170 (antibody, V domains shown)
VH: QVQLVESGGGVVQPGRSLRLSCVASGFTFNTYGMHWVRQVPGKGLEWVAVISYDGSNQIYGDSVKGRFTISRDNSKNTVYLQMNGLRAEDTAVYYCATPLHDYSGYDLFDYGYAMDVWGQGTTVTVSS
VL: QSVLTQPPSASGTPGQRVTVSCSGSSSNIGSDYVYWYQQFPGTAPKLLIYRNSQRPSGVPDRFSGSKSGTSASLAISGLRSEDEADYYCAAWDGSISAWVFGGGTKLTVL
B13: BD55-4662 (antibody, V domains shown)
VH: QVQLQESGPGLVKPSETLSLTCTVSGASISSYYWTWIRQPPGKGLEWIGYIYNSGSTDYSPRGSTNYSPSLESRVTISVDTSKNQFSLKLSSVTAADTAVYHCARHPWTEMATYRSAYYFDSWGQGTLVTVSS
VL: QSALTQPASVSGSPGQSITISCTGTTSDVGAYNHVSWYQQHPGKAPNLMIYDVSERPSGVSDRFSASKSGNTASLTISGLQAEDEADYYCCSYAGRSTWMFGGGTKLTVL
B14: BD55-5189 (antibody, V domains shown)
VH: QVQLVQSGAEVKKPGASVKVSCKASGYSFTTFYIHWLRQAPGQGLEWMGIVNVAGDTTDYAQNFQGRVTMTRDTSTGTVYMELSSLRSEDTAIYYCASPREKGYSGYDFWETTFDIWGQGTMVTVS
VL: EVVMTQSPATLSVSPGERATLSCRASQSISSNLAWYQQKPGQAPRLLIYGASTRATGIPARFSGSGSGSQFTLTISSLQSEDFVVYYCQQYNNWPPIFGQGTKLEIK
B15: BD55-4892 (antibody, V domains shown)
VH: QVQLVESGGGVVQPGGSLRLSCAASGFTFSTYGMHWVRQAPGKGLEWVAVISYDGNNKYHADSVKGRFTISRDNSKNTLYLEMKSLRAEDTAVYYCAKEVNYGSGSFENEGRLDYWGQGTLVTVSS
VL: DIQMTQSPSSLSASVGDRVTITCRTSQSINRYLNWYQQKPGKAPKLLIYATSTLQSGVPSRFSGSGSGTDFILTISNLQPEDFAAYYCQQTYSIPWTFGQGTKVEIK
B16: BD55-5198 (antibody, V domains shown)
VH: EVQLVESGGGVVKPGGSLRLSCAASGFTFSAFAMHWVRQVPGKGLEYISLISEDGYSTFYAASVTGRFTLSRDNNKKSLYLQMNSLRSEDTAFYYCAKDIGGTVAGTGADFWGQGILVTVSS
VL: QSVLTQPPSVSGAPGQKVTISCTGDSSNIGAGYTVHWYQQLPGTAPKLLIYGDNNRPSGVPDRFSGSKSGTSASLAITGLQAEDEADYYCQSYDTSLSGLWVFGGGTRLTVL
B17: BD55-4495 (antibody, V domains shown)
VH: QGHLVQSGAEVKEPGASVTLSCKASGYTFTNHFMHWVRQAPGQGLEWMARINPSGDSTNLAQKFQGRVSVTRDSSTSTVYMYLSRLRVEDTAVYYCARDRFPSPGNFVWGSPLGGMDVWGQGTTVTVSS
VL: SYDLAQPPSVSVSPGQTATITCSGAALPNQYAYWYQQKSGQAPVLLLYKDSERPSGIPERFSGSNSGTTVTLTISGVQAEDEAVYYCQSADSSTSYHVFGAGTKVTVL
B18: BD55-5163 (antibody, V domains shown)
VH: QVQLVQSGAEVKKPGASLKVSCKASGYTFTYFGVSWVRQAPGQGLEWVGWISTYHGDTNYAQKLQGRVTLTTDTSTSTVYMELRNLRSDDTAIYYCAREGGSGWGDFWGQGTLVTVSS
VL: EIVLTQSPATLSLSPGERATLSCRANQSISNYLAWYQQRPGQAPRLLIFDASNRATGIPARFTGSGSETDFTLTISSLEPEDFAVYYCQQRSNWPPAFGQGTRLDIK
B19: BD55-5196 (antibody, V domains shown)
VH: QVHLVQSGAEVRKPGASVKVSCKASGYTFTSYFMYWVRQAPGHGLEWMGMIDPISGSTNYAQRFQGRVTMTRDTSTSTVNMELTSLRSEDTAVYYCARDGGIRFGDLSPDNWFDPWGRGTLVTVSS
VL: QSVLTQPPSVSGAPGQRVTISCTGSSSNLGAGYDVHWYQQLPGTAPKLLIYGNNNRPSGVPDRFSGSRSGTSASLAITGLLAEDEADYYCQSYDSSSLSGSKVFGTGTTVTVL
B20: BD55-4664 (antibody, V domains shown)
VH: QVQLQQWGAGLLRPSETLSLTCAVSGGSFSGYYWSWIRQPPGKGLEWIGEINHTGGTNYNPSLKSRVTVSIDMSRNQFSVKLNSLTAADTAVYFCAREAPDYFDSSGYRFDYWGQGALVTISS
VL: QSALTQPASVSGSPGQSITISCTGTSNDVGGYNYVSWYQQHPGKAPKLIIYDVTSRPSGISNRFSGSKSGNTASLTISGLQAEDEADYYCCSYTRSFTRVFGGGTKLTVL
B21: BD55-4760 (antibody, V domains shown)
VH: EVQLVEAGGDLVQPGRSLRLSCAASGFNFDDCAMHWVRQAPGKGLEWVSGINWSSGDIDYADSVKGRFTISRDNAKNSLYLQMNSLRPEDTAFYYCAKDPWGELSSIDFWGQGTLVTVSS
VL: QLVLTQSPSASASLGASVKLTCTLSRGHSSYAIAWHQQQPEKGPRYLMRVNSDGSHIKGDGIPDRFSGSSSGAERYLTISSLQSEDEADYYCQTWSIGIRVFGGGTKLTVL

The binders below were run against SARS-CoV-2 (WT) Spike RBD Protein (His Tag) (SARS-CoV-2 ancestral (Wuhan-Hu-1), UniProt P0DTC2).

Does B1 bind?
Result: binds

Does B2 bind?
Result: binds

Does B3 bind?
Result: binds

Does B4 bind?
Result: binds

Does B5 bind?
Result: binds

Does B6 bind?
Result: binds

Does B7 bind?
Result: binds

Does B8 bind?
Result: binds

Does B9 bind?
Result: binds

Does B10 bind?
Result: binds

Does B11 bind?
Result: binds

Does B12 bind?
Result: binds

Does B13 bind?
Result: binds

Does B14 bind?
Result: binds

Does B15 bind?
Result: binds

Does B16 bind?
Result: binds

Does B17 bind?
Result: binds

Does B18 bind?
Result: binds

Does B19 bind?
Result: binds

Does B20 bind?
Result: binds

Does B21 bind?
Result: binds
